T1: full-length human C1s (produced in house) (human, UniProt P09871 16-688)
T1 construct: Called full-length; Partly auto-cleaved at R422-I423 on blots; also called HuC1s; Hu C1s
T1 sequence: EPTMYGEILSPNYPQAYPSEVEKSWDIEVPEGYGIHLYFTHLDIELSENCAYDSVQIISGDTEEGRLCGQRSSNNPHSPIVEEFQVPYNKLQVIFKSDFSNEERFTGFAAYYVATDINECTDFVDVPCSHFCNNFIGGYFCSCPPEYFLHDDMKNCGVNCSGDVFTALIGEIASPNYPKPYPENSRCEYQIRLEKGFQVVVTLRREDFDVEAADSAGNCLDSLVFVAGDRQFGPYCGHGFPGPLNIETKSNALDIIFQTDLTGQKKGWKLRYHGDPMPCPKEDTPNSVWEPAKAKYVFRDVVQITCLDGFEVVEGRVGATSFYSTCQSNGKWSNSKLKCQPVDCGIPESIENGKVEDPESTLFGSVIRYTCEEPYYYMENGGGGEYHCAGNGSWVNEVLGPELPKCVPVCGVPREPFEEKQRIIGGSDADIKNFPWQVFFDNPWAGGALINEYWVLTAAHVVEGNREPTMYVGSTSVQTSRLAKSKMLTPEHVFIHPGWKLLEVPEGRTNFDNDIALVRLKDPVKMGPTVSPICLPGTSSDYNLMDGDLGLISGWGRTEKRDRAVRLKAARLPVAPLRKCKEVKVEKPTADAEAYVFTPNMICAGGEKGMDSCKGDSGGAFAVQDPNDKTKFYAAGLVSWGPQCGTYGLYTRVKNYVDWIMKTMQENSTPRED

T2: human C1s proenzyme (CompTech A103) (human, UniProt P09871 16-688)
T2 construct: also called proenzyme human C1s (native C1s)
T2 sequence (looked up): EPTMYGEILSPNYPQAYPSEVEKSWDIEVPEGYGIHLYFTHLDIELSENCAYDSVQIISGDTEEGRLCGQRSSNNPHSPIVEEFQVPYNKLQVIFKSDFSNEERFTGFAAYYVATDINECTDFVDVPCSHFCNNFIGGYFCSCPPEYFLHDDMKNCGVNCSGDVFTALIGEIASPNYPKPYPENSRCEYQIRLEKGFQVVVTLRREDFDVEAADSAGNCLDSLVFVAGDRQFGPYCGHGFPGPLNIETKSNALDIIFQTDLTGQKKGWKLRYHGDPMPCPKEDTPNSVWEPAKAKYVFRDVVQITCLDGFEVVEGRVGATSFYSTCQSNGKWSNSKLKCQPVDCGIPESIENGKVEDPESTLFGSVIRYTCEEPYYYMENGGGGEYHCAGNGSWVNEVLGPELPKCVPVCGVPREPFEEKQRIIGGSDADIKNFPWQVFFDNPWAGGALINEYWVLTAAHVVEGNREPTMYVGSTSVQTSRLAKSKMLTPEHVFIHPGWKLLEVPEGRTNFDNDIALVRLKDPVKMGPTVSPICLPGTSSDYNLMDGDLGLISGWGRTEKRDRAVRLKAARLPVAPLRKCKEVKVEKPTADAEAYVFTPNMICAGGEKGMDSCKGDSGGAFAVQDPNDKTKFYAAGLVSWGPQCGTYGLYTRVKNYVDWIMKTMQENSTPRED

T3: active human C1s (CompTech A104 C1s Enzyme) (human, UniProt P09871 16-688)
T3 construct: also called human active C1s; active C1s protein
T3 sequence (looked up): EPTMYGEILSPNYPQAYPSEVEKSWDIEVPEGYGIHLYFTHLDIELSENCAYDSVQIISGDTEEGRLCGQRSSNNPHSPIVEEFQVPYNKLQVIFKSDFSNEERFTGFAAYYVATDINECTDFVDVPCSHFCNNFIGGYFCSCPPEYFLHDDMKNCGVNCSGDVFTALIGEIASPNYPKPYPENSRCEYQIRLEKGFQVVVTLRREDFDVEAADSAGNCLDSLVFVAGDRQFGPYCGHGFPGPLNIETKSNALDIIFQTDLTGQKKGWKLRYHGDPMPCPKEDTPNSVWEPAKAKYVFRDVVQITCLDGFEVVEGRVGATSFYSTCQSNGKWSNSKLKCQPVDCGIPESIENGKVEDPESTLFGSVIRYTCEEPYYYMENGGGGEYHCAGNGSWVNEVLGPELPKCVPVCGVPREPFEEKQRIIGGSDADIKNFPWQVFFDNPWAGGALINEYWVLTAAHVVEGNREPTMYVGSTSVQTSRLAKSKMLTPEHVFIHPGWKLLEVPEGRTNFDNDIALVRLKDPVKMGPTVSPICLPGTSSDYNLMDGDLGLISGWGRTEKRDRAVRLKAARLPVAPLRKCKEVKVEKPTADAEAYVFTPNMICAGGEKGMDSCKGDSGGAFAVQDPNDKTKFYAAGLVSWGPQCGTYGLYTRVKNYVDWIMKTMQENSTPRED

T4: cynomolgus monkey C1s (produced in house) (cynomolgus monkey, UniProt P09871 16-685 (human entry), limits assumed)
T4 construct: also called CyC1s
T4 chain: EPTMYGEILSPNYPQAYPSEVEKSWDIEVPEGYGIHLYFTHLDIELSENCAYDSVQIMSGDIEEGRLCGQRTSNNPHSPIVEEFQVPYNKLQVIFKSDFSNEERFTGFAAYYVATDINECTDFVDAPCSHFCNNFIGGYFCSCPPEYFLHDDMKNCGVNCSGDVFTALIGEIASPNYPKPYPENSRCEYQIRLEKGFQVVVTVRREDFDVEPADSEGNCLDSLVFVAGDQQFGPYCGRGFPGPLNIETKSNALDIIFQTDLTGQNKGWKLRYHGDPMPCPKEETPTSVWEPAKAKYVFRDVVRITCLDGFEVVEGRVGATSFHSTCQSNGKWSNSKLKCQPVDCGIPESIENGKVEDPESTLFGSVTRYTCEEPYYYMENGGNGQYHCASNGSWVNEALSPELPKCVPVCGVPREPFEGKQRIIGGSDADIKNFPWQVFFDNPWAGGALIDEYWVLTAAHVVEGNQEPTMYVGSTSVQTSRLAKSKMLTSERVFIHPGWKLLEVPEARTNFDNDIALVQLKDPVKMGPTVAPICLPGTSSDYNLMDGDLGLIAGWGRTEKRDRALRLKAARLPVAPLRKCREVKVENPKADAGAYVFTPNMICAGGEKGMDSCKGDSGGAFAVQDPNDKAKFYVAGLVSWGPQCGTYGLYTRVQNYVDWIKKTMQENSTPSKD

B1: Anti-C1s antibody 2-7 (antibody, human IgG1, kappa, V domains shown)
VH: EVKLEESGGGLVPPGGSMKLSCVASGFTFSNYFMNWVRQSPEKGLEWVAEIRLKFTNYATHYAESVEGRFTISRDDSKSSVYLQMNNLRAEDTGIYYCTRDYGSRNGYFDYWGQGTTLTVSS
VL: DIVMTQAAPSVPVTPGESVSISCRSSKSLLHSNGNTFLYWFLQRPGQSPQLLIYRMSNLASGVPDRFSGSGSGTAFTLRVSRVEAEDVGIYYCMQHLEYPYTFGGGTKLEIKT
notes: the HC/LC entries may hold it too; also called clone 2-7
B2: Anti-C1s antibody hz2-7(H1L2) (antibody, V domains shown)
VH: EVQLLESGGGLVQPGGSLRLSCAASGFTFSNYFMNWVRQAPGKGLEWVSEIRLKFTNYATHYADSVKGRFTISRDDSKSTLYLQMNSLRAEDTAVYYCTRDYGSRNGYFDYWGQGTLVTVSS
VL: DIVMTQTPLSLPVTPGEPASISCRSSKSLLHSNGNTFLYWFLQKPGQSPQLLIYRMSNLASGVPDRFSGSGSGTDFTLKISRVEAEDVGVYYCMQHLEYPYTFGGGTKLEIKR
notes: Humanized, human IgG1 / kappa; also called hz2-7(1L2)
B3: Anti-C1s antibody hz2-8 (H1L2 G80A/T82A) (antibody, V domains shown)
VH: QVQLVQSGAEVKKPGASVKVSCKASGFNIKEYYMHWVRQAPEQGLEWMGWIDPENADAIYAQKFQGRVTITADTSTNTAYMELSSLRSEDTAVYYCARSRLFFAYWGQGTLVTVSS
VL: DIQMTQSPKSLSASVGDRVTITCRASQDVRTALDWYQQKPGQSPKLLIYSASYRYSGVPSRFSGSGSGTDFTLTISSLQPEDFATYYCQQQYTTPYTFGQGTKLEIKR
notes: Humanized variant with G80A and T82A in HC CDR2 (already in the entry), human IgG1 / kappa

Columns and labels:
[1] = target: T1, full-length human C1s (produced in …); assay: BLI (Octet RED96e), antibody on AHC biosensor; C1s Species: Human; R^2 0.9983
Text: (§1) At last, analyte was dissociated in 1×KB for 360 sec. Data analysis was done using OCTET® Data Analysis HT Software (Sartorius AG).

[2] = target: T2, human C1s proenzyme (CompTech A103); assay: BLI (Octet RED96e), antibody on AHC biosensor; HuC1s Form: Proenzyme; R^2 0.9994
Protocol: (§2) Bio-Layer Interferometry technology was used for anti-C1s antibody affinity measurement and binding kinetics determinations with OCTET® RED96e system (Sartorius AG). Pre-hydrated Anti-Human IgG Fc Capture (AHC) biosensors were first equilibrated in 1×KB (Kinetic Buffer, 1×PBS pH 7.4+0.02% Tween-20+0.1% BSA) for 120 sec for the first baseline, followed by loading with […] anti-C1s antibody (2-7, FIG. 3A; 2-8, FIG. 3B; hz2-7(H1L2), FIG. 3C; hz2-8(H1L2 G80A/T82A, FIG. 3D) onto AHC biosensors for 240 sec. Then, the second baseline signal was established for 120 sec before association with various concentrations of active human C1s (CompTech A104) for 240-360 sec. At last, analyte was dissociated in 1×KB for 360 sec. Anti-C1s antibodies 2-7 and 2-8 were also analyzed against human C1s proenzyme (CompTech A103) (data not shown). Data analysis was carried out using OCTET® Data Analysis HT Software (Sartorius AG). KD, kₒₙ, koff and R² values were calculated for each antibody and target combination, as summarized in FIG. 3E showing high affinity binding with KD values in the low nanomolar to picomolar range.

[3] = target: T3, active human C1s (CompTech A104 C1s …); assay: BLI (Octet RED96e), antibody on AHC biosensor; HuC1s Form: Active; R^2 0.9998
Protocol: as §2

[4] = target: T4, cynomolgus monkey C1s (produced in …); assay: BLI (Octet RED96e), antibody on AHC biosensor; C1s Species: Cyno Monkey; R^2 0.9997
Text: as §1

[5] = target: T1, full-length human C1s (produced in …); assay: BLI (Octet RED96e), antibody on AHC biosensor; C1s Species: Human; R^2 0.9997
Text: as §1

Binder | Kd [1] [nM] | koff [1] [s⁻¹] | kon [1] [M⁻¹ s⁻¹] | Kd [2] [nM] | koff [2] [s⁻¹] | kon [2] [M⁻¹ s⁻¹] | Kd [3] [nM] | koff [3] [s⁻¹] | kon [3] [M⁻¹ s⁻¹] | Kd [4] [nM] | koff [4] [s⁻¹] | kon [4] [M⁻¹ s⁻¹] | Kd [5] [nM] | koff [5] [s⁻¹] | kon [5] [M⁻¹ s⁻¹]
B1 | 0.012 | 3.9e-05 | 3.2e+06 | 0.14 | 4.8e-05 | 350000 | – | – | – | – | – | – | – | – | –
B2 | – | – | – | – | – | – | 0.24 | 7e-05 | 290000 | 0.94 | 0.00023 | 250000 | – | – | –
B3 | – | – | – | – | – | – | 1.2 | 0.00029 | 240000 | – | – | – | 0.7 | 0.0003 | 430000

Source: patent US20230051715A1 (MABWELL THERAPEUTICS, published 2023)
